Experimental data taken from US8470599B2, “Renal progenitor cells from embryonic stem cells” (The Regents of the University of Michigan, priority 2005, dated 2013).

B1: bmp4: growth factor (R & D Systems) added to retinoic acid and activin-a treated EBs (protein, UniProt P12644 293-408, looked up)
Bone morphogenetic protein 4: SPKHHSQRARKKNKNCRRHSLYVDFSDVGWNDWIVAPPGYQAFYCHGDCPFPLADHLNSTNHAIVQTLVNSVNSSIPKACCVPTELSAISMLYLDEYDKVVLKNYQEMVVEGCGCR
B2: bmp-7: growth factor (R & D Systems), third component of the nephrogenic cocktail (protein, UniProt P18075 293-431, looked up)
Bone morphogenetic protein 7: STGSKQRSQNRSKTPKNQEALRMANVAENSSSDQRQACKKHELYVSFRDLGWQDWIIAPEGYAAYYCEGECAFPLNSYMNATNHAIVQTLVHFINPETVPKPCCAPTQLNAISVLYFDDSSNVILKKYRNMVVRACGCH

Tested on: EB derived cells in E12.5 cultured kidney rudiments
Test: Injection of EB derived cells into E12.5 cultured kidney rudiments, lacZ / laminin / LTA staining
Assay type: cell-based, mouse
Conditions: for contribution to developing tubules: compared to untreated EB cells, rudiments 4 or 5 days after injection
Protocol: Cryosections from kidney rudiments were stained for lacZ expression (A & C) and with anti-laminin antibodies (B & D). […] C & D) Many lacZ positive cells from control EBs were found in large and small aggregates (arrows) that remained mesenchymal in appearance and were not surrounded by laminin containing basement membranes. Some blue cells from control EBs were also found in tubules. Magnification bars are 100 microns.
E12.5 kidney rudiments were injected with RA7 treated EB cells (A-F) or control EB cells (G & H) and stained for lacZ, laminin, and LTA binding. […] Arrows point to glomerular tufts. B) Laminin staining of same tissue as in A. C & D) Co-localization of lacZ positive cells in developing proximal tubules (arrows) that also stain with LTA lectin (green) and are surrounded by laminin containing basement membranes (red). E & F) Another developing proximal tubule derived from RA7 treated EB cells (arrow) stained as above. G & H) Many control EB cells localize to interstitial and peripheral mesenchyme (arrows), though a small number of lacZ positive cells are also found in tubules.
This example describes cell culture and microinjection techniques utilized in experiments conducted during the course of the present invention. Mouse ES cells (R26) were grown in high glucose DMEM (GIBCO BRL), 10% fetal bovine serum (Atlanta Biologicals), 0.1 mM β-mercaptoethanol (Sigma), 4 mM glutamine (GIBCO BRL), 20 unit/ml PEN/STREP (GIBCO BRL), 0.1 mg/ml G418 (GIBCO BRL), and 10^3 unit/ml rLIF (Chemicon) on a 0.1% gelatin-coated tissue culture plate at 37° C. CO2 incubator for 2 days. The ES cells were transferred using 0.05% trypsin plus 0.53 mM EDTA (GIBCO BRL) to a 100-mm bacteriological petri dish (Falcon) to induce embryoid body (EB) formation. The EB suspension was cultured in the same medium without rLIF for 2 days and then transferred to 60-mm tissue culture plates coated with 0.1% gelatin. Each 60-mm tissue culture plate contained about 100 EBs. […]

| Molecule | ability of EB cells to contribute to tubules in vitro (addition of 100 ng/ml bmp4) | contribution to developing tubules |
| --- | --- | --- |
| B1 | completely inhibited | did not integrate |
| B2 | – | enhanced |
